According to the supplement of paper PMC9170038:

System: MS2 coat protein
Assay: apparent KD of MS2 coat protein; designed switch direction (-1 OFF switch, 1 ON switch): -1; higher = weaker reporter binding
In short: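 Stalled E. coli RNA polymerase transcribed designed RNA switches on Illumina chips, which were then titrated with SNAP-549-labelled MS2 coat protein, doubling from 0.7 or 1.5 nM to 3 µM. Steps lasted from 0.8–1.5 h at the lowest concentration to 10–20 min at the highest. The apparent KD is each design's median over clusters of curve-fitted normalised fluorescence.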

[1] = Eterna round: R95, input ligand: FMN 200 uM
[2] = Eterna round: R95, input ligand: microRNA oligo, concentration not stated
[3] = Eterna round: R95, input ligand: none

Sequence	apparent KD of MS2 coat protein [1] [nM]	apparent KD of MS2 coat protein [2] [nM]	apparent KD of MS2 coat protein [3] [nM]	apparent KD of MS2 coat protein (input ligand: FMN 200 uM) [nM]	apparent KD of MS2 coat protein (input ligand: microRNA oligo, concentration not stated) [nM]	apparent KD of MS2 coat protein (input ligand: none) [nM]
GGCCCUAAGGUCAGAUCCACAAGCUUUUUGCUCGUUUUAACAUGAGGAUCACCCAUGUCUAGUGGAUCUGAUCCUCU [Sensor v3, turn-off variant 2 (MOD of Indiso v.4)] (puzzle: Sensor v3, turn-off variant 2)	25.2	15.4	21.6			
AAUAAACAUGAGGAUCACCCAUGUGAGGAUAUACAAAUAAAUAAAUAAAUAAAUAAUAGUAGAAGGCACAAUAA [Excls1-II] (puzzle: Exclusion 1)	35.9	35.3	44			
GUCCUCAUGGCGCCUAAACACAUGAGGAUCACCCAUGUACAGGCUUUUUGCCGUCUUAUAAUAAAACCGAGGAUGCG [Reanaor] (puzzle: Sensor v3, turn-off variant 1)	103	157	148			
UACAUGAGGAUCACCCAUGUUUUGUCGUGUAUGGUAUUUAUCUAGGAUAUCAUUUAAUUUAUUUAUGAGAAGGAGAAUAUUAAU [JMF's solution 99] (Eterna round: R96, puzzle: Exclusion NG 3)				29.8	28	31.1
AAGAAACAUGAGGAUCACCCAUGUGAGGAUAUGAAGAAGAAAAGAAAAGAAAGAAGAAUCAGAAGGCACAAAGG [salish99-ex1_r3_046] (puzzle: Exclusion 1)	67.1	25.8	48.4			
UUUAAUUUUUUUUUUUUACAAGCUUUUUGCUCGUCUUAUACAUGAGGAUCACCCAUGUAGGUGAAAAGUAAAUUAUC [JMF 45] (puzzle: Sensor v3, turn-off variant 2)	15.8	82.1	20.8			
CUCUCACAUGAGGAUCACCCAUGUUAGGAUAUUCCGUAGCGACUUACAAGAGGAGCAGGAAGAAGGAGCCUGGC [Eternabot (L1) Solution 40] (Eterna round: R97, puzzle: Exclusion 1)				343		435
GAAUAGAGAGGAUAUGCAAUGAAGGUAGUACGAUAUAUCUGACAUGAGGAUCACCCAUGUAGAAGGCUCAGAUC [EX2 #8] (Eterna round: R97, puzzle: Exclusion 2)				29.2		29.3
GACCGGACGUGGUCAGGUAACAUGAGGAUCACCCAUGUAGGUCUAGGAACAAGCCUUUUGUAGGCUCGUCUUAUAAA [JR_SV3TOV1_Sub059] (puzzle: Sensor v3, turn-off variant 1)	47.5	36.1	63.6			
UCGAAGCUAGGAUAUACAUGAGGAUCACCCAUGUGAGUAAUAACUUGGAGAUACCUCCGUAGAAGGAGCACAAA [Beatdienat] (puzzle: Exclusion 3)	310	107	125			
CUUUUGUGAGGAUAUCAGUAGUAAAAUAAUAAAAUUACUACUGAGAAGGCACAUGAGGAUCACCCAUGUUCCUC [salish99_ex4_r3_019] (puzzle: Exclusion 4)		36.4				
CAUACACAUGAGGAUCACCCAUGUGAGGAUAUGCGUACGUUGUCAGUAGGCGACGUGCGCAGAAGGCGCGUGUU [Mat - Mod of JL D90] (puzzle: Exclusion 1)		46.3				
ACGUGAUAUCUGUCGGUGGACAUGAGGAUCACCCAUGUAAGCUUUUCGCUCGUCUUAUAACCCGGUGACAGACCUUC [Edraatis] (puzzle: Sensor v3, turn-off variant 1)	33.7	417	48			
GCCUUAGGAGUCAGGAUAUACAAUAAAAUAAUUAAGUAGAAGGGACAUGAGGAUCACCCAUGUACAUUACAUUG [alecazam29] (Eterna round: R97, puzzle: Brourd's mod of Exclusion 4)				31		13.6
